Consider three molecules from patent US8030043B2, “β-galactoside-α2,3-sialyltransferase, a gene encoding thereof, and a method for producing thereof” (Japan Tobacco Inc., priority 2005, dated 2011).

This series in a line: Sialyltransferase activity in E. coli homogenate (crude enzyme solution), transfer of 14C-NeuAc from CMP-NeuAc to lactose. It is filed as biochemical. The settings on record: lactose acceptor; for Radioactivity (cpm) Average: average of duplicate; for Sialyltransferase activity in crude enzyme solution (in words): CMP-14C-NeuAc donor. The method, then:
Sialyltransferase activity was measured as described in J. Biochem., 120, pp. 104-110 (1996) (which is hereby incorporated by reference in its entirety). More specifically, the enzymatic reaction was accomplished by using CMP-NeuAc (70 nmol, containing 25000 cpm CMP-NeuAc in which NeuAc was labeled with ^14C, 356 cpm/nmol; NeuAc represents N-acetylneuraminic acid) as a glycosyl donor substrate, lactose (1.25 μmol) as a glycosyl acceptor substrate, NaCl added to give a concentration of 0.5 M, and the enzyme-containing reaction solution (30 μl) prepared as described above. The enzymatic reaction was carried out at 25° C. for 10 to 30 minutes. After completion of the reaction, 1.97 ml of 5 mM phosphate buffer (pH 6.8) was added to the reaction solution, which was then applied to a Dowex 1×8 (PO4^3− form, 0.2×2 cm, BIO-RAD) column. The radioactivity was measured for the reaction product, i.e., sialyllactose contained in the eluate (0 to 2 ml) from this column to calculate the enzyme activity.
An induction experiment of protein expression was performed on the two 467-N0C0 clones and the three 467-N2C0 clones obtained in (4) above. A single colony of E. coli TB1 having the expression vector pTrc99A carrying each clone was inoculated into LB medium (5 ml) containing an antibiotic, ampicillin (final concentration 100 μg/mL), and pre-cultured at 30° C. to about A600=0.5, followed by addition of IPTG (isopropyl-β-D(−)-thiogalactopyranoside, Wako Pure Chemical Industries, Ltd. Japan) at a final concentration of 1 mM. After culturing with shaking at 30° C. for an additional 4 hours, the cells in 2 ml culture solution were collected by centrifugation. These cells were suspended in 200 μl of 20 mM BisTris buffer (pH 7.0) containing 0.336% Triton X-100 and 0.5 M sodium chloride, and ultrasonically homogenized under ice cooling. The resulting homogenate was defined as a crude enzyme solution and provided for activity measurement. The reaction was carried out in duplicate, and the reaction composition was the same as shown in Example 1, except that the reaction time was set to 15 hours.
In the same manner as shown in Example 5(5), an induction experiment of protein expression was performed on 2 clones, i.e., the first clone of ISH224-N0C0 and the first clone of ISH224-N1C0 to measure their enzyme activity.
In the same manner as shown in Example 5(5), an induction experiment of protein expression was performed on 3 clones, i.e., the first clone of FAJ-N0C0 as well as the first and second clones of FAJ-N1C0 to measure their enzyme activity.

The mark [1] stands for this setting: JT-ISH-467 gene clones, 25° C., reaction time 15 hours.
Where [2] appears, read: JT-FAJ-16 gene clones, as Example 5(5).
Where [3] appears, read: JT-ISH-224 gene clones, as Example 5(5).

B1: ISH467-N2C0 third clone: JT-ISH-467 sialyltransferase lacking signal peptide region, nucleotides 73 to 1230 of SEQ ID NO: 1, no mutation (protein, listed as Photobacterium phosphoreum)
chain: MFVFCKKIFFLIFISLMILGGCNSDSKHNNSDGNITKNKTIEVYVDRATLPTIQQMTQIINENSNNKKLISWSRYPINDETLLESINGSFFKNRPELIKSLDSMILTNEIKKVIINGNTLWAVDVVNIIKSIEALGKKTEIELNFYDDGSAEYVRLYDFSRLPESEQEYKISLSKDNIQSSINGTQPFDNSIENIYGFSQLYPTTYHMLRADIFETNLPLTSLKRVISNNIKQMKWDYFTTFNSQQKNKFYNFTGFNPEKIKEQYKASPHENFIFIGTNSGTATAEQQIDILTEAKKPDSPIITNSIQGLDLFFKGHPSATYNQQIIDAHNMIEIYNKIPFEALIMTDALPDAVGGMGSSVFFSLPNTVENKFIFYKSDTDIENNALIQVMIELNIVNRNDVKLISDLQ
modifications: CDS (1)..(1230) /gene=“467-23ST” /product=“Beta-galactoside- alpha 2,3-sialyltransferase”
B1: the “Sialyltransferase activity in crude enzyme solution (in words)” value (“Sialyltransferase activity” for short) was “sialyltransferase activity was also observed”. For the same molecule, under setting [1], the “Radioactivity (cpm) Round 1” value is on record as 8547 cpm, the “Radioactivity (cpm) Round 2” value amounted to 8481 cpm and the “Radioactivity (cpm) Average” value was determined as 8514 cpm.

B2: FAJ-N1C0 first clone: JT-FAJ-16 sialyltransferase lacking signal peptide region, nucleotides 67 to 1209 of SEQ ID NO: 30 (protein, listed as Vibrio sp.)
chain: MKNIITKRMLIILSSLFTIIGCNNDNSTTTNNNAIEIYVDRATLPTIQQMTKIVSQKTSNKKLISWSRYPITDKSLLKKINAEFFKEQFELTESLKNIILSENIDNLIIHGNTLWSIDVVDIIKEVNLLGKNIPIELHFYDDGSAEYVRIYEFSKLPESEQKYKTSLSKNNIKFSIDGTDSFKNTIENIYGFSQLYPTTYHMLRADIFDTTLKINPLRELLSNNIKQMKWDYFKDFNYKQKDIFYSLTNFNPKEIQEDFNKNSNKNFIFIGSNSATATAEEQINIISEAKKENSSIITNSISDYDLFFKGHPSATFNEQIINAHDMIEINNKIPFEALIMTGILPDAVGGMGSSVFFSIPKEVKNKFVFYKSGTDIENNSLIQVMLKLNLINRDNIKLISDI
modifications: CDS (1)..(1209) /gene=“FAJ16-23ST” /product=“Beta-galactoside- alpha 2,3-sialyltransferase”
For B2, the “Sialyltransferase activity” value was “sialyltransferase activity was observed”. Moreover, under setting [2], the “Radioactivity (cpm) Round 1” value was 5664 cpm, the “Radioactivity (cpm) Round 2” value was 6724 cpm and the “Radioactivity (cpm) Average” value came to 6194 cpm.

B3: ISH224-N1C0 first clone: JT-ISH-224 sialyltransferase lacking signal peptide region, nucleotides 73 to 1230 of SEQ ID NO: 28 (protein, listed as Photobacterium sp.)
chain: MLVFCKKMFFSVFISLMILGGCNSDSNHNNSDGNITKNKTIEVYVDRATLPTIQQMTQIINENSNNKKLISWSRYPINDEELLESINGSFFKNNSELIKSLDSMILTNDIKKVIINGNTLWAADVVNIIKSIEAFGKKTEIELNFYDDGSAEYVRLYDFSKLPESEQEYKISLSKDNILSSINGTQPFENVVENIYGFSQLYPTTYHMLRADIFETNLPLRSLKGVLSNNIKQMKWDYFKTFNSQQKDKFYNFTGFNPDEIMEQYKASPNKNFIFVGTNSGTATAEQQIDILTEAKNPNSPIITKSIQGFDLFFKGHPSATYNKQIIDAHNMIEIYNKIPFEALIMTDALPDAVGGMGSSVFFSLPNTVENKFIFYKSDTDIENNALIQVMIELNIVNRNDVKLISDLQ
modifications: CDS (1)..(1230) /gene=“224-23ST” /product=“Beta-galactoside-alpha-2,3-sialyltransferase”
Regarding B3, the “Sialyltransferase activity” value is given as “sialyltransferase activity was observed”. Under setting [3], the “Radioactivity (cpm) Round 1” value amounted to 9330 cpm, the “Radioactivity (cpm) Round 2” value worked out at 9415 cpm and the “Radioactivity (cpm) Average” value was found to be 9672.5 cpm.
